Measured values from patent US8840891 (RSR, dated 2014).

What was measured:
[1] = target: TSHR with Arg109 mutated to Alanine (human) (UniProt P16473); experiment: cell-based or functional assay
[2] = target: wild type human TSHR (human) (UniProt P16473); experiment: cell-based or functional assay
[3] = target: TSHR with Asp203 mutated to Alanine expressed on CHO cells (human) (UniProt P16473); experiment: cell-based or functional assay
[4] = target: wild type human TSHR (thyrotropin receptor) expressed on CHO cells (human) (UniProt P16473); experiment: cell-based or functional assay
[5] = target: TSHR coated onto tubes (TSHR coated tubes) (human) (UniProt P16473); experiment: TSHR coated tubes, in the presence of HBD pool (Table 5)

Molecule: 5C9 IgG (antibody)
- Mutated/wild type (%); 5C9 0.01 µg/mL + TSH [1]: 89%
- Mutated/wild type (%); 5C9 0.1 µg/mL + TSH [1]: 43%
- Mutated/wild type (%); 5C9 1.0 µg/mL + TSH [1]: 69%
- Mutated/wild type (%); 5C9 10 µg/mL + TSH [1]: 117%
- Mutated/wild type (%); 5C9 100 µg/mL + TSH [1]: 46%
- Mutated/wild type (%); 5C9 100 µg/mL only [1]: 147%
- cyclic AMP; 5C9 0.01 µg/mL + TSH (fmol/cell well) [1]: 9650
- cyclic AMP; 5C9 0.1 µg/mL + TSH (fmol/cell well) [1]: 1720
- cyclic AMP; 5C9 1.0 µg/mL + TSH (fmol/cell well) [1]: 827
- cyclic AMP; 5C9 10 µg/mL + TSH (fmol/cell well) [1]: 827
- cyclic AMP; 5C9 100 µg/mL + TSH (fmol/cell well) [1]: 561
- cyclic AMP; 5C9 100 µg/mL only (fmol/cell well) [1]: 335
- cyclic AMP; 5C9 0.01 µg/mL + TSH (fmol/cell well) [2]: 10800
- cyclic AMP; 5C9 0.1 µg/mL + TSH (fmol/cell well) [2]: 4010
- cyclic AMP; 5C9 1.0 µg/mL + TSH (fmol/cell well) [2]: 1210
- cyclic AMP; 5C9 10 µg/mL + TSH (fmol/cell well) [2]: 706
- cyclic AMP; 5C9 100 µg/mL + TSH (fmol/cell well) [2]: 1230
- cyclic AMP; 5C9 100 µg/mL only (fmol/cell well) [2]: 228

B1: 5C9 IgG (human monoclonal autoantibody to the TSHR) (antibody, from another filing, V domains shown)
VH: EVQLVESGGGLIQPGGSLRLSCAASGFTVSSNYMSWVRQAPGKGLEWVSVTYSGGSTSYADSVKGRFTISRDNSKNTLYLQMNSLRAEDTAVYYCARGGRYCSSISCYARSGCDYWGQGTLVTVSS
VL: AIQMTQSPSSLSASVGDRVTITCRASQSISNYLNWYQQKPGKAPKLLIYAASSLQSGVPSRFSGSGSGTDFTLTISSLQPEDFATYYCQQSYSSPSTTFGQGTKLEIK
- Cyclic AMP produced; 5C9 0.01 µg/mL + TSH (fmol/cell well) [3]: 14700
- Cyclic AMP produced; 5C9 0.1 µg/mL + TSH (fmol/cell well) [3]: 13100
- Cyclic AMP produced; 5C9 1.0 µg/mL + TSH (fmol/cell well) [3]: 14700
- Cyclic AMP produced; 5C9 10 µg/mL + TSH (fmol/cell well) [3]: 12600
- Cyclic AMP produced; 5C9 100 µg/mL + TSH (fmol/cell well) [3]: 12700
- Cyclic AMP produced; 5C9 100 µg/mL only (fmol/cell well) [3]: 1370
- Mutated/wild type (%); 5C9 0.01 µg/mL + TSH [3]: 95%
- Mutated/wild type (%); 5C9 0.1 µg/mL + TSH [3]: 296%
- Mutated/wild type (%); 5C9 1.0 µg/mL + TSH [3]: 1090%
- Mutated/wild type (%); 5C9 10 µg/mL + TSH [3]: 1570%
- Mutated/wild type (%); 5C9 100 µg/mL + TSH [3]: 3450%
- Mutated/wild type (%); 5C9 100 µg/mL only [3]: 415%
- Cyclic AMP produced; 5C9 0.01 µg/mL + TSH (fmol/cell well) [4]: 15500
- Cyclic AMP produced; 5C9 0.1 µg/mL + TSH (fmol/cell well) [4]: 4440
- Cyclic AMP produced; 5C9 1.0 µg/mL + TSH (fmol/cell well) [4]: 1350
- Cyclic AMP produced; 5C9 10 µg/mL + TSH (fmol/cell well) [4]: 807
- Cyclic AMP produced; 5C9 100 µg/mL + TSH (fmol/cell well) [4]: 367
- Cyclic AMP produced; 5C9 100 µg/mL only (fmol/cell well) [4]: 330
- % of labelled protein bound [5]: 13%
